# Experiment: soluble on expression in E. coli; label from the status in PepcDB or PDB records
row,Sequence,soluble on expression in E. coli
1,MGSDKIHHHHHHMVAYGELIREVRLSKGLTQKEVYTGVISKSYAIGFEKGKHDITLVLFEEILERVMLSSDEFFFMNRGYSLAEEDNFWYKFANAANQKSLADLQELYQEVLQQTGDRANLRKAIVHSRMEINEQFLLNNRFDVSIVSEKDKAVIQTYLWKVQSWTLEEIRIFANSVDYFEEDVQIYFFQLVLKSLEKYKHYDRGKKVFSTLLSNIIEELITRNQLEYAAQLLEILHELSSTHDCAFYRIMHNYYQGLIWMKNDQVEQGLKESKSAIRILDVLDYKSLAQLYNTLLQQFLEKENIQIV,not soluble
2,MGSDKIHHHHHHMVEIKKICCIGAGYVGGPTCSVIAHMCPEIRVTVVDVNEARINAWNSPTLPIYEPGLKEVVESCRGKNLFFSTNIDDAIREADLVFISVNTPTKTYGMGKGRAADLKYIEACARRIVQNSNGYKIVTEKSTVPVRAAESIRRIFDANTKPNLNLQVLSNPEFLAEGTAIKDLKNPDRVLIGGDETPEGQKAVRALCAVYEHWVPKEKILTTNTWSSELSKLAANAFLAQRISSINSISALCEATGADVEEVATAIGMDQRIGNKFLKASVGFGGSCFQKDVLNLVYLCEALNLPEVARYWQQVIDMNDYQRRRFASRIIDSLFNTVTDKKIAILGFAFKKDTGDTRESSSIYISKYLMDEGAHLHIYDPKVPREQIVVDLSHPGVSADDQVSRLVTISKDPYEACDGAHALVICTEWDMFKELDYERIHKKMLKPAFIFDGRRVLDGLHSELQTIGFQIETIGKKVSSKRIPYTPGEIPKFSLQDPPNKKPKV,not soluble
3,MGSDKIHHHHHHMVEPMTPRFKYTKASQENIQQLGNILEQCFVMSFGDSEIYVKGIGLENFRVIYREQKVAGGLAILPMGQWWGGQRVPMAGIAAVGIAPEYRGDGAAIALIQHTLQEISEQDIPISVLYPATQRLYRKAGYEQAGSSCVWEIPTDSIQIQHASLPLEPVVLKNNPIFHELYQQQAQLTHGYLDRHPAIWQGLNRTLDTETLYSYLIGDKDKPQGYIIFTQERTRDGSILRIRDWVTLSNPAVQSFWTFIANHRSQIDKVTWKSSVIDALTLLLPEQSATIRSQDRWMLRIVNVCKALEARGYPLGVEAELHLEVQDDLLATNQGKFILSVANGKSEVTKGGKGELQLDIKGLASLYTSLFTPRQLQLTGKLQATETALLKATQIFAGESPWMIDFF,not soluble
4,MGSDKIHHHHHHMVGIGFRKDFAAKFLNTTDLQPDFIEVAPENWIGIGGLWKKRLQQALEKYPLYTHGLSLSIGSPDALDFDLLKGVKKFLAETGAKVYSEHLSYSKCDNAHLYDLLPIPFTHDAVKHIAKRIQTIQDFLERRLAIEIVSYYSPVAAEMSELEFVNAILQESDCDLLLDVNNIYVNGFNHNYDPYAFINQLPLERVAYIHIAGHDQVSETLIIDTHGEAIVDPVYYLYQYTMNQLQRDVPTLLERDFNIPQLSELQGEIDRLKKIKADCLTKELYGIQR,not soluble
5,MGSDKIHHHHHHMVIFTQVVECGSFSGAAIATGHSNSYISKTLNKLEARVGVRLLNRTTRSISLTPEGQVYYEQCQQLVLDAHDAVSLLTQSHIEPKGVLKISCPTSFAENHLQEVMSAFMHQYPEVNLVLDLNDRHVDLVQDGFDLVIRATDKLAESSLVCRKIYSCKAYTVASHDYLKRFGLPQSPEQLSEHQCICYSNLKQANKWIYSHSNGTDNQVEVKAKLLCNSASMELAMVLAGHGICRLPAFVMEKELQDNKLAILFNDYITPTIDVYAIYPSRKHLSPKVRCFIDLLVDKMPRSLL,not soluble
6,MGSDKIHHHHHHMVIQMKFFNREKEIHEILSILEGEPNIIYFIYGPLNSGKTALIKHIIENKLSDDYKVFYINFRTYLISEKREFIEAIFTTKKDDFFEKIKDKSEVLNLITKGAKILTGIPIPEVEFDKLFEEKINDAFQYLNSILLEVKKSGKQPVLILDELQMIKDVVLNWQKYLLKELFQFLVSLTKEQHLCHVFCLSSDSLFIEYVYSAGELEGRAKYLLVDDFDKETALKFMDFLAKEILNKKLSDEDKELIYNYVGGKPVYIYSVIDEMRYRKLEDILNLMLKEETQKLKYFLKELDYIKPKVELKDEIIEIKKDDIINALKLFKENYEVSDDDIPEPVYIYLVKKNILFLNPIEGILKPQSFLIWNAIKKLLNGH,not soluble
7,MGSDKIHHHHHHMVKVVKFGGSSLASAEQFTKVGDIIRSDESRKYVVPSAPGKRNSKDTKVTDMLYACYDLAENDQDFKVMLRKIKDRYDSIINGLHLKLALDEEFKIIAENFKAKAGADYAASRGEYLNGIIMANYLGYEFIDSATVIFFDENGNFDAEKTDKVLSKKLEQTEKAVIPGFYGAGPDGKVVTFSRGGSDITGSIVSKACHASMYENWTDVSGCLVADPRIIDNPQPIKVVTYRELRELSYMGASVLHEDAVFPVRKAGIPINIRNTNDPEAPGTLIVESTCQKPDYTITGIAGKKGFVAVNIDKDKMNSEVGFCRKALQAFEENGISIEHMPSGIDTMTVFVHQAEFEGKEQQVISSIRRLAHPDIIDLESDLALIAVVGRGMKSNRGTAGRIFSALAHANINVRMIDQGSSELNIIIGVSNDDFDKAIKAIYDIFVVTQL,not soluble
8,MGSDKIHHHHHHMVQAWYMDESTADPRKPHRAQPDRPVSLEQLRTLGVLYWKLDADKYENDPELEKIRKMRNYSWMDIITICKDTLPNYEEKIKMFFEEHLHLDEEIRYILEGSGYFDVRDKEDKWIRISMEKGDMITLPAGIYHRFTLDEKNYVKAMRLFVGEPVWTPYNRPADHFDARVQYMSFLEGTA,soluble
9,MGSDKIHHHHHHMVRLRPYRSCDAKYIVTWISSEEEFVKWCANLITYPFTEESMNKIQESFENNEKGWLFTAIDKKGTPIGFMSMSKADYENDSVHLGFIIVDSSKRSSGFGKQMINQAIKYAFEILNVSRVTLKVFDNNSTAHYCYQNVGFVDEKYMEKEFPYKDEMWGCYCMAIQK,not soluble
10,MGSDKIHHHHHHMVSLFKIIQVGDHGEVPGAEVFWMKDFDKWYRLSFYSFLIKTENDQYVLINTGLPDDLSLRNKFLKEWAKSDRCKFQHVEKIENALAKLNITTDDISHIIITPVQDYTIGRIHMFRKAKLYFSKKGWYEDVVTPSPSPFLNRDIYLPRLTREYLFDEAWNRIVLVENQEVIKGIEVKWTGCHHRSSMLVKFNFDKKRWCISDSAFVMNNFEQNIPIGIAEDIYECLNAYDYMRRECDVVIPSYDPENVNRFKEYILK,not soluble
11,MGSDKIHHHHHHMVTYAGKLVLAPMVRAGELPTRLMALAHGADLVWSPEIIDKKLIQCVRKENTALQTVDYVVPSKVQTRPETLVFRTYPKLESSKLIFQIGSASPALATQAALKVINDVSGIDINAGCPKHFSIHSGMGSALLRTPDTLCLILKELVKNVGNPHSKPISVKIRLLDTKQDTLQLVKRLCATGITNLTVHCRKTEMRNREQPITDYIAEIYEICQANNVSLIVNGAIRDRSHFHDLQANHWKNTNIGGMIAECAERDPTVFDHTSKPSEDGPSWVVACREFIQWATKFDNHIGNTKYMLSRIVPGKSVFFQYFARCKSPEEVSFVLKQLNDDGSAQTDPSEYLENCRAQEKALKNANAIAKQKRKQTDHIGSDTKKQKVVPLPTDI,not soluble
12,MGSDKIHHHHHHMWEIDQVRQGIVKNQIPSVNLWYGEERFFIQEALQLLKNSYLAQDPSGSGIEILSGKSTGPEQIVEIANTVSFFGGKLIIVEDIPYFQDGQGDALEPFFAYFENPNPGTCLVFLAQSVNRGRKFFKAIEKKGSILEFVSPKRQQEWSAWLDRELAARGKTMKPQVKALFLEWGGHQVGALSQELDKLALFVEGKEIRTEDVRSLVPQAVEATVFELLDAVAARSSKEAVQKLQQVLRQEHSLKVLTLLSRQVRLLLGARAMRQQGRGAEEAPRLLGIKPYEAQKIWQKAAQLTWEQLSWALRECLETDVAIKTGKGEPEFLLELMVVKFCEM,not soluble
13,MGSDKIHHHHHHMWITINRNSNISLSRQIYCEIKDMILDGSLKFEQKLPSSRTLSKELSVSRNTVLDAYNQLIAEGYLETRNGYGTIVAKGISGHKVDFKLNDTFRDEKDLHTNKQKNYIDFRSGVPELKLFPRKELSKLYKQILYDLSDSDFRYGSTAGVWVLRVEISKYLFRTRGIRCNPKNIMIVSGSTQGLSLISQLLYKSNKKVAVEDPIHKGLLKVISSIGYSVVGIKVDDKGMNTNLIKSIKGISFVYTTPSHQYPLGGILPIQRRLELIKCATENDYYIIEDDYDSEFRYEGQPISSLYELSPNKVIYIGSFSKILSPAIRVGFMLLPDNILESYKTLKMYSDVHTETILQHVLAEFIGNGGLEKYIFRMKKLYNRKRKYLIKVLNTEFKNEFKIKGEAAGLHIVAHFYNVKFTESLIHKIFEAGIKVYPIQQYAIENILEYDHEIILGYAHLSFDEIEKGVKILSKIIHMNQGT,not soluble
14,MGSDKIHHHHHHMWLSSEFNRMAEKTFKAYEPDDAFFSTLLYGPEGVGKSTLLVKCCQRLKEKKTILYIDAQDFVKNYAFAAQEGTLSQFRLRLRTPGVLIMDHIEVLKGKTRSIEEFYHTYEALFQRNGRIICGFRGDPSQLGFLGEKLSSRLRGGLVVPILQPTPEDMLNYLRQMAYGKFLIVEDLVLELMAEEAANFPEAQSLMNGFIQFANRTDSALDHDALLLYLQERRYQEGLRPSPQNIIQKVAELTGVAAAAIYSTTRTPEVRQARQLAIYGIRSLSRLSYPEIGASLNKSHSSIMKSYQQFQEAVQKNPELREMLESLVKYFNSPDDEKTER,not soluble
15,MGSDKIHHHHHHMWTILCDKDSGGVLLRKGVSTSIIRSNPDLLEALPKAELYELGFFKAEDLEKVLRFFHDKNFGIHAPFIYRYRYHHPNPTSLNEEEREDTFSVNKKCAELARKIGAEYMIIHFPNALQKENWLSVYREVEREFSELAGVISVRVENVYGNDHFHSAEDYRTFLENTGCKMCVDIGHLLLDAEVYGFSPIEFIEKLSDFVEEFHIYYADFETYKKCHHAPWGESKEFLEVLEFIKDFDADFVLEPTPECEEGLEKLFEYWRDL,not soluble
16,MGSDKIHHHHHHMYETFEKLPDGKKEQIIQVCIEEFIENGYQNASTNTIVKRLGISKGVLFLYFKNKKNLYLYLVEYIMEFFIQDYFEEYAGGPVININVFDNLGEYYKELMQKKPELFLFMLQAFVNTPAELKEEIDARHNQAHDSLFRHMNNEGFRPGIDIHLVDDLLHMVSYYVGQLITNDLKGKDLNTIIKDEINKNIVRYAELFAKYVDILKYGVYER,not soluble
17,MGSDKIHHHHHHMYKHSIIPKPVSEYDLRLLRIFISVVEHGGFSSAANALGITRSTISVHMSNLETRMKLKLCLRGRGGFSLTEDGQAVYQAVLDLFATMDDFSLLIDSLGSELSGELIILCADQLDESKQHKMAQVIKKINDASPNLHLVLDGDSISNIEKALLKDKAHIALFPSYQQIEGLQYQPLFSESIYLCCGKQHPFFNQVDTAISEEILGQAAAIHPGINIDLAGKQQLEKLNLSAKSYQFDTRKAMILSGCYIGFMQQSFIQAELNRGEIRIIKPNSHHYQFRLSLVSKKTPREVKKVELLTNVFSQVFEL,not soluble
18,MGSDKIHHHHHHMYKRNERLNLIRKRVDQYGQVAVKDLAIFLQVTPETVRKDLETLENDKLITRTHGGAIQYNHINKEKSYANKWQKQSQVKERIAKKAALQIKSGEIIVIDGGTTTGRIPQYLNDITQTTIVTNSLKIADELNRAIEEQRIQAEVIMLAGKTNTEQDVVRGHMTNELLQRFKFDKAFISCGSFDTSDCYEFDLEEAHASHIMIQKSQLSYLLADSSKRDAHASYRIDGFSEIDYMISDYAKPQNIEYFNQKHWLQI,not soluble
